Biological target: HIV gp120 monomer of strain CN97001 (HIV-1, strain CN97001 (paper: clade C); …, UniProt G4XFJ5, strain)
Assay: BLI

B1: recombinant bnAb 10-1074 (from pTT3 10-1074 NHP-IgG) (antibody, V domains shown)
VH: QVQLQESGPGLVKPSETLSVTCSVSGDSMNNYYWTWIRQSPGKGLEWIGYISDRESATYNPSLNSRVVISRDTSKNQLSLKLNSVTPADTAVYYCATARRGQRIYGVVSFGEFFYYYSMDVWGKGTTVTVSS
VL: LSVALGETARISCGRQALGSRAVQWYQHRPGQAPILLIYNNQDRPSGIPERFSGTPDINFGTRATLTISGVEAGDEADYYCHMWDSRSGFSWSFGGATRLTVL
binding result: binds

Source: doi:10.1101/2025.05.02.651933 (bioRxiv, 2025)
